# Experiment: soluble on expression in E. coli; label from the status in PepcDB or PDB records
row,Sequence,soluble on expression in E. coli
1,MPNYKLLYFDARALAEPIRIMFAMLNVPYEDYRVSVEEWSKLKPTTPFGQLPILQVDGEQFGQSMSITRYLARKFGLAGKTAEEEAYADSIVDQYRDFIFFFRQFTSSVFYGSDADHINKVRFEVVEPARDDFLAIINKFLAKSKSGFLVGDSLTWADIVIADNLTSLLKNGFLDFNKEKKLEEFYNKIHSIPEIKNYVATRKDSIV,not soluble
2,MPPDDPSGRHGPRIESFLSKVPVVSSNPLVCPYARKCTYGNKCKFYHPERANGQHMSVTERLMKENQQKKSLGAVKSMQYEMFKNKHAALSRTQSLNVVKQLTENMSQLPPTPESPMQMPRQHMQLQQANSAPWQQHTVVQRHGSSPLTPVNRQMNVYPDMYNMSQQQNHQVLPNQHGVIGGQRPPKMTTTVSQTHLFAPSTAVWGHSELSVGPVNTGSDESLAEVRSRVHFHLCNIFPHDFVESVMAANPEEVNAPVLCELIIRAQKEYRK,not soluble
3,MPPPNKRQKHARICGFMGTLARKKKEIEQQEALMKLHNLPLTYTEDQYKIVKEESTIYKNRFETAAAKNVELLKATDELKKELEFLKRQPGNQFKVDKKLKSEIDSAEEESKFYKNCFETTAAENVELLKVTDQLKKELEFLKAQQGNQFKVDMKIKSEMESATQSNLILLREKEMWKDRFNDVLSEKLALSARIRNVIGDRSESVEVPNDSNRDIWELREDLEMERSARRKAEEELKILKMTSSRGSMHISRDSTNQTPNEILLSMAIRLDSTSSN,not soluble
4,MPPRMSVAPERALIDVDREIRIDGFGPYACIDVTAEMRMCGVPWRSRATFLAGADGSLDLGRDSPVSGDYAEPDAMGLVWSMQCQDPPRAVFPPDRTDALTVHITASDGRHEAHATLVQEFLAEGVRHQAVRARAGGMSLSGELYTPP,not soluble
5,MPPTPEVGLPLWLLAELTYRCPLQCPYCSNPLDFAAQGQELSTEQWFKVMAEAREMGAAQIGFSGGEPLVRQDLAQLIAEARRLGYYTNLITSGIGLTEARIADFKKAGLDHIQISFQASDEQVNNLLAGSKKAFAQKLEMARAVKAHGYPMVLNFVTHRHNIDKIDRIIELCIALEADFVELATCQFYGWAHLNRLGLLPTRAQLERAERITNEYRDKLKAEGNPCKLIFVTPDYYEERPKACMNGWGNLFLTITPDGTALPCH,not soluble
6,MPQFASKAEEKNYYERQASLAEFLTWYHQQELPEYEKPSLTVDMVLLCYNKEADQLKVLLIQRKGHPFRNSWALPGGFVNRNESTEDSVLRETKEETGVVISQENIEQLHSFSRPDRDPRGWVVTVSYLAFIGEEPLIAGDDAKEVHWFNLERHGQHITLSHEDVEITLDLKTAASLGKDTLAFDHSEIIIKAFNRVVDKMEHEPQVLQVLGKDFTITEARKVFAKFLGVDYRSIDHSNFKKAMTQYFEELGERPVGIGRPSKIYQLKTTTGF,soluble
7,MPQQTQTSAEKRCMVTKRIMLKLPDISAASLIPASIEASPAQVLGPASLAGIFPRGVRVYLTDTGAASQEKLVDAATHLRNLGYEPVPHLAARRIPSRVEFEEQVKRLAGEADVTDVLVVGGGVDRPAGPFASSMDMLSSGIFDRYGIKKIAIAGHPEGSPDFSEETAIAALRLKRDFGERSDAAMRIVTQFGFDPARFIAWAEGLAASGIDLPVHIGVSGPAKITTLLKYAALCGVGNSIAYLKKNALSLTTLARGHSPDSIVGPIERHWQANPQGPIRQIHVFPFGGLQNSADWLVSRGSWQTRDAGRPAPADSMAG,not soluble
8,MPQSESNIALLIDADNAPASKIEAIVSEIAKYGVANIRKAYGNWKSPNLKAWEECLHEYAIRPVQQFDYTKGKNATDAAMIIDAMDLLYTQRLDAFAIVSSDCDFTPLVMRILTNGLKVYGFGEKKTPLPFVYACSTFLYLESIDQIENSEGATQSSTSVKKTGKELKQDAKLISLLRSAISSTIDDDGWSSLAEIGGHIKNQASFDSRNYGYAKLSSLFEAIDLFEIERKNRAIYVRNRQKKSATSKSLEHHHHHH,soluble
9,MPQSYIVRTMRPADVEAVLRVQAAVYPASLLESAALFQNRIEIAPATCQVALDGQDLIGYLIAYPWDAGLPPALDRSLERLPGAADTWFVHDCAVLPAAQGGGVAAALLAGGRAQARRLGLRRASLVALAPAVGYWLRHGYQPLADSDALRAKLAGYGDGARYMVRADLAG,not soluble
10,MPRHRISGINWLAHYNELIRFWTRKTGSRGDVEDATHDVITKLLESNVSTISSPRSYLHSSIRNRLTDSYRQNKILDLVPIHDLPEDSHPLQPNDPVTHTCTMQLLTALKEALQELPLKCRQVFIWHRLEGYSQTEIAEKLDISVNMVEKYMIRATRHLRDRLQDHIPD,not soluble
11,MPRLENTIDIKVPVNIAYNQWTQFETFPNFMSSVLQVKQLDDSHVWWQVEIGGHAIEWETEIIEQVPDDHIAWRSVSGPRHLGLVSFKHVDIHATRVHVEIEYEADMKAEVSATMTGLLEQKISEALTCYRQLLESRKRPAGGWRGRIAVGTDNAVRHLEHHHHHH,soluble
12,MPRPGKDSYDEQKPPYSYIWLTYMAIQDSDDKMLPLTEIYKYIMDRFPFYRKNTQRWQNSLRHNLSFNDCFIKIPRRADRPGKGSYWAVHPNASGMFENGSCLRRRKRFRARGGQDDDDDDFHHPAPSKISRKNPLPLLPEPPITPPLLSSLFPNLPPSLPNFCLFPPGMDPTKSLLLNPLSLLLMPHFLKNSSNFESSTPHSETSEISGSGSSSSKTPTPEAGFNSSFSIESILSS,not soluble
13,MPRRAPAFPLSDIKAQMLFANNIKAQQASKRSFKEGAIETYEGLLSVDPRFLSFKNELSRYLTDHFPANVDEYGRVYGNGVRTNFFGMRHMNGFPMIPATWPLASNLKKRADADLADGPVSERDNLLFRAAVRLMFSDLEPVPLKIRKGSSTCIPYFSNDMGTKIEIAERALEKAEEAGNLMLQGKFDDAYQLHQMGGAYYVVYRAQSTDAITLDPKTGKFVSKDRMVADFEYAVTGGEQGSLFAASKDASRLKEQYGIDVPDGFFCERRRTAMGGPFALNAPIMAVAQPVRNKIYSKYAYTFHHTTRLNKEEKVKEWSLCVATDVSDHDTFWPGWLRDLICDELLNMGYAPWWVKLFETSLKLPVYVGAPAPEQGHTLLGDPSNPDLEVGLSSGQGATDLMGTLLMSITYLVMQLDHTAPHLNSRIKDMPSACRFLDSYWQGHEEIRQISKSDDAMLGWTKGRALVGGHRLFEMLKEGKVNPSPYMKISYQHGGAFLGDILLYDSRREPGSAIFVGNINSMLNNQFSPEYGVQSGVRDRSKRKRPFPGLAWASMKDTYGACPIYSDVLEAIERCWWNAFGESYRAYREDMLKRDTLELSRYVASMARQAGLAELTPIDLEVLADPNKLQYKWTEADVSANIHEVLMHGVSVEKTERFLRSVMPR,soluble
14,MPRRRGSSSSSSAAGGSGGGGGFGFSSLRRELHLHNFFRTSSPSASSTSRTPPAALPPRTSAVTIPGSNHKLTSSASSYHPPRELTVSTFSAGSATAADGLGGAHLTPSLSSSVHARRESFLYRASDDLREASSLRPVSRASSIASNEHGYVILYIFL,not soluble
15,MPRSSLRLLAKPLLESRRGFCTSSDKIVASVLFERLRVVIPKPDPAVYAFQEFKFNWQQQFRRRYPDEFLDIAKNRAKGEYQMDYVPAPRITEADKNNDRKSLYRALDKKLYLLIFGKPFGATSDKPVWHFPEKVYDSEPTLRKCAESALKSVVGDLTHTYFVGNAPMAHMAIQPTEEMPDLPSYKRFFFKCSVVAASKYDISNCEDFVWVTKDELLEFFPEQAEFFNKMIIS,soluble
16,MPRTHGYAPIGKRCHGKCNWHARGRINVIGALIGKCLLTVGLFKNNIDADTFLGWTIHDLLPKLPPASIVVMDNATFRKRQDIQNVITRGGHTLEYLPAYSPDLNPIEHKWAQTKAVRKQQNQTVEQLFKIESFYVT,not soluble
17,MPRWRSAVEGLMLNRVVEQLTAQLPARNLGWVFPDETTAALLLDGPDGQPLGNLVLGYRPPQPVLFLSRERLRGDPHNPFQRLLATRVRGELLKIEQFKLDRVVALHFGPAEGFIDQPPARLLFEVTGRNANLLVMEEGEGFAGRITLAAREITGSRNRFRTIRSGGPYTPPPPYDKFDPRTMTPADAQTLAGVPLSEWRGRVDGLGPMLSAELARRAEMRPSQAPGDDWERAYDALKSLVADPSVSEGTLSEGAREAARQEKAGALRKLLREPLEKRVTLLENQLGDVTRAEEGVEIAAQDRAEADLLMAYAQTVEPGAASALLPSFDGEGEVPVSLEPQLSAVQNAEKRYARARRRDEVYLRLAEREGSIRSELEAARERLHRLDHAELEQLEQLASDLEREKPERS,not soluble
18,MPSRKFADGEVVRGRWPGSSLYYEVEILSHDSTSQLYTVKYKDGTELELKENDIK,soluble
19,MPSSDPTQSSGFAGLRSTSWPVLGILSFGEELSGYDLKKWASYSVRFFYWSPSFSQVYSELKKLEDLGYVTSRTVVDDEARVKPKRLYKITDAGMAVMRSWAREAPIDPPVLKHGVMLRMWLGHLTEPEQLKDALKEHISYVEGMSRQAALDARDSDVEPTWAFAHMVNKWSERYYAAESELAKQMLADIDEAVERMHGEGTPEHPGVPKPTASHSIRRSREAQKEYQAAMKAAQDADDEAERED,not soluble
20,MPSSNSVVPPFDARNLEIKTKSIEQTLIPLVTQITTLVNYKESYMASGKPKSERAMRAALKIGSAVEAAIERFVCVGETIADENADIQPEMYDACTEARLAGASMANLSCACNDDPNSVVDKAVLVRASRQLLSSVTRVLLLADRVLVKQVLRAEDKIAFSLSRLESTRSFNDFVKVFAVFGGEMVELAHRSGDRQHDLKSEKRKAQMSIARTSLERLTMLLLTASKTYLRHPDCDSALQCRDGVFYQMKLSLELIAICVCDGILTTEKSRYIQDEPDMPIDIALQLTANAAIKQLTEMLEMIRMTVRVGAGVRERIVSALDALCQLTQDFTDSAYTPHHQREQILDFLEECRFEMTNLIQPDENEQLAASGLEVTVERLNRRLKDLSKQLQIVAMEQISEVLRANEDQVLLSSMKACAVSGDIDGVEKYMHKFREHADHMQEVCRLLHHISITDALHVHTGHVERNMRALAPLTILAGRTLCVHPSSRIARENLEVFCDTWGQAVNDLSRVAKESDVAANGRVAAEKQAYMSLPRPGVSKSSCRRSVPKHDAASSSSSNELLPNGGRHPKQVGIAPTRVVSQTGDEASSDEEQVDKQEIEAFQYRISLIIDDLQSDVEGGTHGR,not soluble
21,MPSSVELSVQAGLEHFDAAQWDALAGPQPFVRHAFLRALHDTGCASPGTGWTPCFLALRRAGLLAGAVPLYAKSHSRGEYVFDYAWADAYARNGLPYYPKLLSAVPFTPVGGARLLAHTHADRLLLARGLIQLARQFEVSSLHVLFPSDDDLLALREAGYLIRAGVQFHWRNAGYAGFDDFLAAFSHDKRKKIRQDRKKVAAERVSFRWLRGADIDAAALDFFYQCYRHTYLAHGNPPYLNLEFFRQLHAEMPDALVLILAEQDGQPVAAALNLQADGVLYGRYWGARRYIPGLHFETCYLQSIEYCIAHGQASFEGGAQGEHKMARGLLPTPTWSAHWIADTRFAAAIDDFLGHETHAIDEYRDELATHSPFRKT,not soluble
22,MPSTADTVEVDFITPRHLAGGGDPAWITVPLHRACGWSHGHDPLMPRALLSSPDQKALLRLEPDPDGQWWTLNHTAESGRPAWYASFGARTPVELIAAFTDALTAPAPPTDAPCDPFEPLRQIAWSAPAVGADGLVSPDGTAYVQRQGSADGPGAWFVTVTLGPRPVWQARFDAHTPEHLVAAFTTALADPKPALRTDSGRSLPTRNPNVVTRKTTDVLAVDIAGALEERVQTLTTRHPLPPANPMPPTPPPTRHGRSRLEHHHHHH,soluble

# Reference: the DeepSol protein solubility set
